Assay results: publication PMC10454365

Molecular target: Recombinant human LY6K protein (LY6K-Wt) (human) (UniProt Q17RY6)
Test: SPR; LY6K immobilised on a CM5 chip by amine coupling (~6200–7000 RU); TbR1 injected at various concentrations, 50 μL/min; Biacore T200, 25 °C; running buffer PBS-P + 5% DMSO; 1:1 kinetics binding model

- Kd: 9.2 nM
- koff: 0.000468 s⁻¹
- kon: 51000 M⁻¹ s⁻¹
B1: Recombinant human TbR1 protein (receptor)
chain: LQCFCHLCTKDNFTCVTDGLCFVSVTETTDKVIHNSMCIAEIDLIPRDRPFVCAPSSKTGSVTTTYCCNQDHCNKIELPTTVKSSPGLGPVEL
